Data taken from patent publication US10100120B2, “Antibody which specifically binds to human CRTH2” (KYOWA HAKKO KIRIN CO., LTD, priority 2015, dated 2018).

Legend:
[1] = target: T1, mutated human CRTH2 with amino acid substitution (Homo sapiens, UniProt Q9Y5Y4, D171A/I173A/T172A); test: Epitope analysis using CHO-S cells which express mutated human CRTH2 with amino acid substitution; type: binding; details: mutant D171A, T172A, and I173A; antibody 10 μg/mL; relative to wild-type = 100%
T1 construct: inserting genes encoding various mutants with amino acid substitution obtained by deleting termination codons; expressed in transfected cells; host or cells: CHO-S cells (Lifetechnologies), transient (phmAG1-MNLinker vector)
T1 sequence (Q9Y5Y4 1-395 D171A/T172A/I173A): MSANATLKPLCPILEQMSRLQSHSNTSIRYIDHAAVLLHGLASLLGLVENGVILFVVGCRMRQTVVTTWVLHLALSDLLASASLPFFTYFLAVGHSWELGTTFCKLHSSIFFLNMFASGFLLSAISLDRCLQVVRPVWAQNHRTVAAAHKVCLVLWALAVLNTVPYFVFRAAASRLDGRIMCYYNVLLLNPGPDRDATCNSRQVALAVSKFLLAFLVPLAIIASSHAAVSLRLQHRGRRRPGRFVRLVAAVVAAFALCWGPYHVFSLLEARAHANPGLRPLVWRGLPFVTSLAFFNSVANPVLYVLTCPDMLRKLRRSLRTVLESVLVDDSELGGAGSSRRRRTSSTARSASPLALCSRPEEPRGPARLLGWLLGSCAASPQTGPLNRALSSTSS
Procedure: A mutant with amino acid substitution expression vector obtained by partially substituting amino acid residues in an extracellular region with other amino acid residues among the amino acid sequences of human CRTH2 was prepared. Specifically, mutant with amino acid substitution expression vectors obtained by substitution of S2A; N4A; T6A and L7A; K8A, P9A, and L10A; P12A, L14A, and EISA; Q16E, R19H, and Q21R; H23A, S24A, and N25A; T26A, S27A, and I28A; D171A, T172A, and I173A; S174A, R175A, and L176A; D177A, G178A, and R179A; 1180A and M181A; Y183A, Y184A, and N185A; L187A, L188A, and L189A; N190A; P191A; G192A; P193A; D194A; R195A; D196A, and T198A; N275A, G277A, and L278A; P276A; P279A and L281A; P280A; or V282A, R283A, and R284A in the amino acid sequences represented by SEQ ID NO: 2 were respectively prepared. It should be noted that the above symbols in the amino acid substitution indicate [single letter code of an amino acid residue before substitution] [substitution position counting from the N terminal] [single letter code of the amino acid reside after substitution].
Azami-Green tag was added to the intercellular C terminal region by inserting genes encoding various mutants with amino acid substitution obtained by deleting termination codons to the restriction enzyme sites of BamHI and HindIII using phmAG1-MNLinker (MBL) as expression vectors.
The above-described vectors expressing mutants with amino acid substitution were prepared using 1) a method of entirely synthesizing gene sequences encoding mutants with amino acid substitution and inserting the gene sequences into a vector or 2) a method of performing site-specific mutation from a vector into which DNA which encodes the amino acid sequences of wild-type human CRTH2 represented by SEQ ID NO: 1 was inserted.
CHO-S cells (Lifetechnologies) were used for preparing mutated human CRTH2 with amino acid substitution expressing cell lines. Free style CHO expression medium (Invitrogen) containing 8 mM L-Glutamine (Invitrogen) was used for subculturing cells and the cells were cultured by shaking under the conditions of 37° C. in the presence of 5% CO2.
25 μg of the mutated human CRTH2 with amino acid substitution expression vector prepared in (1) described above was dissolved in 400 μL of Opti-Pro SFM (Invitrogen) and 25 μL of a Freestyle MAX Reagent (Invitrogen) was dissolved in 400 μL of Opti-Pro SFM and each of them were allowed to stand at room temperature for 5 minutes. The two liquids were mixed with each other and allowed to stand at room temperature for 15 minutes. The mixed solution was added to the CHO-S culture solution and the cells were cultured for 24 hours, thereby obtaining cell lines which express mutated human CRTH2 with amino acid substitution.
The CHO-S cells which express mutated human CRTH2 with amino acid substitution established in (2) were washed with SM, seeded in a 96-well plate such that one well has 2×10^5 cells, and centrifuged at 1700 rpm for 2 minutes. After the supernatant was removed, chLym2, LV0HV1, the anti-human CRTH2 antibody hu19A2 v52, hu8B1 v1, ch3C12, or ch31A5 prepared in Example 9, or a commercially available anti-human CRTH2 antibody BM16 (Santa Cruz) prepared to have a concentration of 10 μg/mL using SM was added thereto to cause a reaction at 4° C. for 1 hour.
After the cells were washed, goat anti-Human IgG Alexa 647 (Molecular Probes) diluted with SM was added to wells to which chLym2, LV0HV1, hu19A2 v52, hu8B1 v1, ch3C12, or ch31A5 was added and goat anti-Rat IgG Alexa 647 (Molecular Probes) diluted with SM was added to wells to which BM16 was added at a final concentration of 10 μg/mL to cause a reaction at 4° C. for 1 hour.
After the reaction, the cells were washed and suspended with SM, and the fluorescent intensity was analyzed by flow cytometry (BD Biosciences, FACS CantoII). […]

Th2 cells = test: Cytotoxic activity against Th2 cells: cytokine production of PBMC after antibody treatment; type: cell-based, human; details: antibody 10 μg/mL 20 hours, then anti-CD3/anti-CD28 stimulation 3 days
Procedure: The mononuclear cell layer prepared in the same manner as in Example 13 was washed twice with RPMI-1640 (Wako Pure Chemical Industries) to which 1/10 volume FBS (GIBCO Inc.), 200 mM-L-Glutamine Stock Solution (NACALAI TESQUE, Inc.), 10 mM MEM Non-Essential Amino Acids Solution (GIBCO Inc.), 100 mM Sodium Pyruvate (GIBCO Inc.), 1 M HEPES Buffer Solution (GIBCO Inc.), and 1/100 volume Penicillin-Streptomycin, Liquid (GIBCO Inc.) were added [hereinafter, referred to as peripheral blood mononuclear cell (PBMC) culture medium], thereby preparing a 1×10^7 cells/mL cell suspension.
The prepared cell suspension was seeded in a 96-well plate at 100 μL/well, chLym2 antibody, the humanized anti-human CRTH2 antibody LV0HV1 or the isotype control antibody described in Example 8 was added thereto at a final concentration of 10 μg/mL to cause a reaction in a 5% CO2 incubator at 37° C. for 20 hours.
The cells after the reaction were washed 7 times with a PBMC culture medium to remove the test antibodies thoroughly. Thereafter, the cells were suspended with 100 μL of PBMC culture medium and seeded in a plate in which anti-CD3 antibody OKT3 (Abeam plc.) was immobilized at a concentration of 1 μg/mL. Next, an anti-CD28 antibody (BD Biosciences) prepared to have a concentration of 2 μg/mL was added thereto at 100 μL/well to cause a reaction in a 5% CO2 incubator at 37° C. for 3 days.
The supernatant after the reaction was recovered, and cytokine in the supernatant was quantified using Human IFN-γ Flex Set (BD Biosciences), Human IL-5 Flex Set (BD Biosciences), and Human IL-13 Flex Set (BD Biosciences) according to the attached instructions.

human basophils = test: Reactivity against human basophils, flow cytometry; type: binding; details: 10 μg/mL, 4° C., 1 hour; FIG. 9
Procedure: To human peripheral blood collected by adding a heparin sodium injection liquid, the same amount of physiological saline for injection as the human peripheral blood was added and mixed with each other. 15 mL of Ficoll-Paque PREMIUM 1.084 (GE Healthcare) was added to a 50 mL centrifuge tube, 30 mL of the human peripheral blood diluted with physiological saline was overlaid thereon, and centrifugation was performed at room temperature and 1500 rpm for 30 minutes.
After the centrifugation, the mononuclear cell layer was recovered using a pipette and washed twice with an MACS buffer. After the number of cells was counted, basophils were isolated by a negative selection method using Basophil Isolation Kit II, human (Miltenyi Biotec) according to the attached instructions.
After the isolated cells were washed with SM, the isolated cells were seeded in a 96-well plate such that one well has 5×10^4 cells, and centrifuged at 2000 rpm for 2 minutes. […] After the cells were washed, the cells were suspended with SM, and the fluorescent intensity was analyzed by flow cytometry (BD Biosciences, FACS CantoII).

B1: chLym2: rat/human chimeric Lym2 antibody, Lym2 variable regions with human IgG1 and κ constant regions (antibody, V domains shown)
VH: EVQLVESGGGLVQPGRSMKLSCAASGFTFSNYYMAWVRQAPKKGLEWVATISYDGSSTYYRDSVKGRFTISRDNAKSTLYLQMDSLRSEDTATYYCARHRGYYYSGAGYFDYWGQGVMVTVSS
VL: DVVLTQTPVSLSVTLGDQASISCRSSQSLEYSDGYTYLEWYLQKPGQSPQVLIYGVSNRFSGVPDRFIGSGSGTDFTLKISRVEPEDLGVYYCFQATHDPLTFGSGTKLEIK
[1]
  reactivity against cells expressing mutated human CRTH2: additionally lost
Th2 cells; FIG. 12(A)
  production of IL-5 (Th2 cytokine): reduced
  production of IL-13 (Th2 cytokine): reduced
Th2 cells; FIG. 12(B)
  production of IFN-γ (Th1 cytokine): not changed
Human basophils
  reactivity against human basophils: has reactivity
